Reference: patent US20110082079A1 (Novo Nordisk, published 2011)
*1 amine or outer side, *2 acyl side, *3 side chain or, on linkers, in order; H or OH if unused. Where no end group is shown, it is not given here. Side-chain parts run from the residue outwards. [ ]: non-standard residue; d: D form. The star is where a group is joined. C20 diacid = O=C(O)CCCCCCCCCCCCCCCCCCC(=O)*; C18 diacid = O=C(O)CCCCCCCCCCCCCCCCC(=O)*; C16 diacid = O=C(O)CCCCCCCCCCCCCCC(=O)*; γGlu = O=C(O)[C@H](CCC(=O)[*:2])N[*:1]; Desaminohistidyl = O=C(CCc1c[nH]cn1)*; βAsp = O=C(O)[C@H](CC(=O)[*:2])N[*:1]; Palmitoyl = CCCCCCCCCCCCCCCC(=O)*; Trx = NC[C@H]1CC[C@H](C(=O)O)CC1; Dap = NC[C@H](N)C(=O)O; AEEA = NCCOCCOCC(=O)O; Aib = CC(C)(N)C(=O)O; Inp = O=C(O)C1CCNCC1

Tests used:
[1] = target: isolated N-terminal extracellular domain of the GLP-1R receptor (nGLP-1R) (UniProt P43220); assay: SPA; displacement of 125I-Exendin-4(9-39) from biotinylated nGLP-1R
isolated N-terminal extracellular domain of the GLP-1R receptor (nGLP-1R), sequence (P43220 24-145 limits assumed): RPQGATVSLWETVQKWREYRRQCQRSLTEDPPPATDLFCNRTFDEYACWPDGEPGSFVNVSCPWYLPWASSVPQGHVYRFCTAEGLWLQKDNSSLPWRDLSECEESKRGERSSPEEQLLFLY

human GLP-1 receptor = human GLP-1 receptor (human, UniProt P43220 24-463); assay: cell-based or functional assay
human GLP-1 receptor, sequence (P43220 24-463): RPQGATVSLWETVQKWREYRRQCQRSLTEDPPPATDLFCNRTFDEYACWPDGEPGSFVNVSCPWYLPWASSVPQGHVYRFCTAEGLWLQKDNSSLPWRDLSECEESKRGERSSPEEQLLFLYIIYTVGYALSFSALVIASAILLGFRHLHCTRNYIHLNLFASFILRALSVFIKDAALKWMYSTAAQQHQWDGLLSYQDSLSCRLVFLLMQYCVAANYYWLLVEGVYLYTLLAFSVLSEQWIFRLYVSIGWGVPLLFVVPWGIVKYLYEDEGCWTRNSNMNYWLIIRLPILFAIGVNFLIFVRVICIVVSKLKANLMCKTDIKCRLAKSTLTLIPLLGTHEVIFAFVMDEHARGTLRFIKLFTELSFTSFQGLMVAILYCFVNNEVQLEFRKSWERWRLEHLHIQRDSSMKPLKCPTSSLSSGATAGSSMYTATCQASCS

[2] = target: T1, human serum albumin (HSA) (human, UniProt P02768 25-609, biotinylated); assay: competition SPA on biotinylated HSA beads; competitor 125I-labelled acylated GLP-1 analogue
T1 construct: also called biotinylated HSA

Row | Molecule | IC50 [1] [nM] | Potency [EC50/nM], cAMP formation (human GLP-1 receptor) [nM] | EC50 [2] [nM]
1 | [Desaminohistidyl]AEGTFTSDVSSYLEEQAAREFIEWLVRGRGEK([AEEA-AEEA-γGlu-C18 diacid]) [[desaminoHis7, Glu22, Arg26, Glu30, …] | – | 0.04 | 1500 to 2000
2 | [Desaminohistidyl]AEGTFTSDVSSYLEEQAAREFIEWLVRGRK([AEEA-AEEA-γGlu-Palmitoyl])-NH2 (SMILES CCCCCCCCCCCCCCCC(=O)N[C@@H](CCC(=O)NCCOCCOCC(=O)NCCOCCOCC(=O)NCCCC[C@H](NC(=O)[C@H](CCCNC(=N)N)NC(=O)CNC(=O)[C@H](CCCNC(=N)N)NC(=O)[C@@H](NC(=O)[C@H](CC(C)C)NC(=O)[C@H](Cc1c[nH]c2ccccc12)NC(=O)[C@H](CCC(=O)O)NC(=O)[C@@H](NC(=O)[C@H](Cc1ccccc1)NC(=O)[C@H](CCC(=O)O)NC(=O)[C@H](CCCNC(=N)N)NC(=O)[C@H](C)NC(=O)[C@H](C)NC(=O)[C@H](CCC(N)=O)NC(=O)[C@H](CCC(=O)O)NC(=O)[C@H](CCC(=O)O)NC(=O)[C@H](CC(C)C)NC(=O)[C@H](Cc1ccc(O)cc1)NC(=O)[C@H](CO)NC(=O)[C@H](CO)NC(=O)[C@@H](NC(=O)[C@H](CC(=O)O)NC(=O)[C@H](CO)NC(=O)[C@@H](NC(=O)[C@H](Cc1ccccc1)NC(=O)[C@@H](NC(=O)CNC(=O)[C@H](CCC(=O)O)NC(=O)[C@H](C)NC(=O)CCc1c[nH]cn1)[C@@H](C)O)[C@@H](C)O)C(C)C)[C@@H](C)CC)C(C)C)C(N)=O)C(=O)O) | – | 0.16 | –
3 | H[Aib]EGTFTSDVSSYLEEQAVREFIAK([AEEA-AEEA-γGlu-C18 diacid])LVKKK-NH2 (N-terminus assumed; SMILES CC[C@H](C)[C@H](NC(=O)[C@H](Cc1ccccc1)NC(=O)[C@H](CCC(=O)O)NC(=O)[C@H](CCCNC(=N)N)NC(=O)[C@@H](NC(=O)[C@H](C)NC(=O)[C@H](CCC(N)=O)NC(=O)[C@H](CCC(=O)O)NC(=O)[C@H](CCC(=O)O)NC(=O)[C@H](CC(C)C)NC(=O)[C@H](Cc1ccc(O)cc1)NC(=O)[C@H](CO)NC(=O)[C@H](CO)NC(=O)[C@@H](NC(=O)[C@H](CC(=O)O)NC(=O)[C@H](CO)NC(=O)[C@@H](NC(=O)[C@H](Cc1ccccc1)NC(=O)[C@@H](NC(=O)CNC(=O)[C@H](CCC(=O)O)NC(=O)C(C)(C)NC(=O)[C@@H](N)Cc1c[nH]cn1)[C@@H](C)O)[C@@H](C)O)C(C)C)C(C)C)C(=O)N[C@@H](C)C(=O)N[C@@H](CCCCNC(=O)COCCOCCNC(=O)COCCOCCNC(=O)CC[C@H](NC(=O)CCCCCCCCCCCCCCCCC(=O)O)C(=O)O)C(=O)N[C@@H](CC(C)C)C(=O)N[C@H](C(=O)N[C@@H](CCCCN)C(=O)N[C@@H](CCCCN)C(=O)N[C@@H](CCCCN)C(N)=O)C(C)C, GLP-1(7-36) = residues 1-30 of the entry) | – | 0.14 | 400 to 800
4 | HXEGTFTSDVSSYLEEQAAREFIAWLVRGRK (not fully specified; Aib at 8; Lys37 is bound to the peptide through its epsilon amino group (epsilon-Lys37) and acylated at N-alpha with the side chain given in the name) | – | 0.08 | 200 to 400
5 | XAEGTFTSDVSSYLEEQAAREXIAWLVRGRK (desamino-histidine at 7; m-CF3-phenylalanine at 28; residue 37 acylated at N-epsilon with the side chain given in the name; C-terminal amide) | – | 0.35 | 1500 to 2000
6 | H[Aib]EGTFTSDVSSYLEEQAAREFIEWLVKGRPK (not fully specified (residue 32); printed as [Aib8,Glu22,Arg26,Glu30,Pro37]GLP-1-(7-37)Lys [2-(2-{2-[4-Carboxy-4-(4-carboxy-4-{4-[4-(16-1H-tetrazol-5-yl-hexadecanoylsulfamoyl)butyrylamino]butyrylamino}butyrylamino)butyrylamino]ethoxy}ethoxy)acetyl]) [[Aib8,Glu22,Arg26,Glu30,Pro37]GLP-1-(7-37)Lys …] | – | 0.29 | 150 to 200
7 | H[Aib]EGTFTSDVSSYLEEQAAREFIEWLVKGK([AEEA-AEEA-C18 diacid])GE-NH2 | – | 0.22 | 200 to 400

Further lines, results first:

Row | IC50 [1] [nM] | Potency [EC50/nM], cAMP formation (human GLP-1 receptor) [nM] | EC50 [2] [nM] | Molecule
8 | 1500 | 0.1 | – | Liraglutide (peptide)
9 | – | 0.74 | 800 | N-epsilon31{2-(2-{2-[2-(2-{2-[4-Carboxy-4-(17-carboxy-heptadecanoylamino)butyrylamino]ethoxy}ethoxy)acetylamino]ethoxy}ethoxy)acetyl}-[Aib8,Glu22,Val25,Arg26,Lys31,Arg34,Arg35,Arg37)]GLP-1(7-37)yl [Arg39,Arg40,Arg41] (peptide)
10 | – | 0.21 | > 2000 | [Desaminohistidyl]AEGTFTSDVSSYLEEQAAREFIEWLVRGK([AEEA-AEEA-γGlu-C16 diacid])GEK
11 | – | 0.66 | – | [Desaminohistidyl]AEGTFTSDVSSYLEEQAAREFIEWLVRGRK([AEEA-AEEA-γGlu-Trx-C20 diacid])
12 | – | 0.06 | 100 to 150 | H[Aib]EGTFTSDVSSYLEEQAAREFIAWLVR[Aib]RK([AEEA-AEEA-γGlu-C18 diacid])
13 | – | 0.52 | 200 to 400 | H[Aib]EGTFTSDVSSYLEEQAAREFIK([AEEA-AEEA-βAsp-Inp-C20 diacid])WLVKGRG
14 | – | 1.27 | > 2000 | H[Aib]EGTFTSDVSSYLEEQAVREFIAK([AEEA-AEEA-γGlu-C18 diacid])LVRRRR
15 | – | 0.34 | 150 to 200 | H[Aib]EGTFTSDVSSYLEEQAVREFIAK([AEEA-AEEA-γGlu-C18 diacid])LV[Dap](2‑(bis-carboxymethylamino)acetyl)-NH2 (GLP-1(7-34) = residues 1-28 of the entry)
16 | – | 0.18 | 200 to 400 | H[Aib]EGTFTSDVSSYLEEQAAREFIAK([AEEA-AEEA-βAsp-Inp-C20 diacid])LVRGRG
